# Assay results as given in US20170355730A1 (ENTRADA THERAPEUTICS, published 2017).
# Starred links: 1 amine or outer side, 2 acyl side, 3 side chain; linkers in the order of their positions; H or OH if unused. Non-standard residues stand in square brackets, D forms with d. Primed or numbered codes have the meaning given here. No end group written: not given here. *: point of attachment. FITC = O=C1OC2(c3ccc(O)cc3Oc3cc(O)ccc32)c2ccc(NC(=S)*)cc21; Trimesoyl = O=C(c1cc(C(=O)[*:2])cc(C(=O)[*:3])c1)[*:1]; F2Pmp = N[C@@H](Cc1ccc(C(F)(F)P(=O)(O)O)cc1)C(=O)O; Phe(4-F) = N[C@@H](Cc1ccc(F)cc1)C(=O)O; dPhe(4-F) = N[C@H](Cc1ccc(F)cc1)C(=O)O; 2Nal = N[C@@H](Cc1ccc2ccccc2c1)C(=O)O; Pip′ = L-homoproline (pipecolyl); AMC = Cc1cc(=O)oc2cc(N*)ccc12; Phg = N[C@H](C(=O)O)c1ccccc1; Nle = CCCC[C@H](N)C(=O)O; Abu = CC[C@H](N)C(=O)O; Dap = NC[C@H](N)C(=O)O; Butyryl = CCCC(=O)*
# B1: peptide 8 (Table 10, CAL-PDZ inhibitor), reduced linear form (peptide)
# peptide: {FITC}-CRRRRFWQCTRV
# modifications: also: disulfide reduced by TCEP (free thiols)
# notes: As assayed in the presence of 2 mM tris(carboxylethyl)phosphine
# B2: peptide 3 (Table 10, caspase 3/7 substrate) (peptide)
# peptide: Ac-D[Nle][Abu]D-{AMC}
# SMILES: CCCC[C@H](NC(=O)[C@H](CC(=O)O)NC(C)=O)C(=O)N[C@@H](CC)C(=O)N[C@@H](CC(=O)O)C(=O)Nc1ccc2c(C)cc(=O)oc2c1
# B3: peptide 37 (Table 18) (peptide)
# peptide: Trimesoyl-[dPhe(4-F)][Phe(4-F)][dT][Pip′][2Nal]RA[dF][Dap]F[2Nal]RRRR[Dap]K
# modifications: linker (positions not given here) via Trimesoyl; not fully specified (bridges); printed as bicyclo[Tm-(D-4-Fpa-Fpa-D-Thr-Pip-Nal-Arg-Ala-D-Phe)-Dap-(Phe-Nal-Arg-Arg-Arg-Arg-Dap)]-Lys
# B4: Monocyclic Inhibitor 1 (peptide)
# peptide: cyclo([dT][dN][dV][F2Pmp][dA]RRRR[2Nal]FQ)
# SMILES: CC(C)[C@H]1NC(=O)[C@@H](CC(N)=O)NC(=O)[C@@H]([C@H](C)O)NC(=O)[C@H](CCC(N)=O)NC(=O)[C@H](Cc2ccccc2)NC(=O)[C@H](Cc2ccc3ccccc3c2)NC(=O)[C@H](CCCNC(=N)N)NC(=O)[C@H](CCCNC(=N)N)NC(=O)[C@H](CCCNC(=N)N)NC(=O)[C@H](CCCNC(=N)N)NC(=O)[C@@H](C)NC(=O)[C@H](Cc2ccc(C(F)(F)P(=O)(O)O)cc2)NC1=O
# B5: peptide 7 (Table 10, R9 conjugate) (peptide)
# peptide: Ac-RRRRRRRRRD[Nle][Abu]D-{AMC}
# SMILES: CCCC[C@H](NC(=O)[C@H](CC(=O)O)NC(=O)[C@H](CCCNC(=N)N)NC(=O)[C@H](CCCNC(=N)N)NC(=O)[C@H](CCCNC(=N)N)NC(=O)[C@H](CCCNC(=N)N)NC(=O)[C@H](CCCNC(=N)N)NC(=O)[C@H](CCCNC(=N)N)NC(=O)[C@H](CCCNC(=N)N)NC(=O)[C@H](CCCNC(=N)N)NC(=O)[C@H](CCCNC(=N)N)NC(C)=O)C(=O)N[C@@H](CC)C(=O)N[C@@H](CC(=O)O)C(=O)Nc1ccc2c(C)cc(=O)oc2c1
# Tests used:
# [1] = target: CAL-PDZ domain (UniProt Q9HD26 286-370); test: fluorescence anisotropy, FITC-labeled peptide, in the presence of 2 mM tris(carboxylethyl)phosphine
# [2] = target: T1, Caspase-3, Human, recombinant protein (human, UniProt P42574 29-277, limits assumed); test: cell-based or functional assay
# T1 sequence (looked up): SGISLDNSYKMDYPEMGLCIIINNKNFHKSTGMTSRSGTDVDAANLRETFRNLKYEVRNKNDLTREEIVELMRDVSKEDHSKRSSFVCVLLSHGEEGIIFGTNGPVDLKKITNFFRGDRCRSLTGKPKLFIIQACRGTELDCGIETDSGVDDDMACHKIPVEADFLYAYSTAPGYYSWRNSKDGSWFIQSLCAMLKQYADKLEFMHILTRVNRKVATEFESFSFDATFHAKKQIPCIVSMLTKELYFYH
# [3] = target: T2, ybbR-tagged PTP1B catalytic domain (amino acids 1-321) (UniProt P18031 1-321, Texas Red attached through CoA/Sfp to the ybbR tag (library screening only)); test: cell-based or functional assay
# T2 sequence: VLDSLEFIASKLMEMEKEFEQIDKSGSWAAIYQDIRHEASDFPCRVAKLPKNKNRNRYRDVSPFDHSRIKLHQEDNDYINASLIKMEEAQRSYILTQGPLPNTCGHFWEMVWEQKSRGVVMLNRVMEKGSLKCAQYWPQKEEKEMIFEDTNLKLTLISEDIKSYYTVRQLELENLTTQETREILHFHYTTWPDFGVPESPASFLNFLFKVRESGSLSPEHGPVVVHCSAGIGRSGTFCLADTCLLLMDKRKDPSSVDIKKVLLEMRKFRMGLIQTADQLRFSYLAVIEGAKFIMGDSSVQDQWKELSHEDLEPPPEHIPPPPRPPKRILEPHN
# [4] = target: T2, ybbR-tagged PTP1B catalytic domain …; test: PTP1B-catalyzed pNPP hydrolysis, competitive inhibition (Lineweaver-Burk and secondary plot)
# [5] = target: Pin4 (human, UniProt Q9Y237 1-131, limits assumed); test: cell-based or functional assay
# [6] = target: T1, Caspase-3, Human, recombinant protein; test: cell-based or functional assay; remark: listed apart in the source
# Sequence of Pin4 (Q9Y237 whole entry): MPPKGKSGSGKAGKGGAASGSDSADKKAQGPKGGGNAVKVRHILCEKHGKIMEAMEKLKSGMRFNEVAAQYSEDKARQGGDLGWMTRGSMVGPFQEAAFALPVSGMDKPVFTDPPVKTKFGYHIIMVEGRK
Binder,ΔFU/min [2],IC50 (inhibition of pNPP hydrolysis) [3],further results
B1,,,Kd [1]: 489 nM
B2,159 ΔFU/min,,
cyclo(S[dV]P[F2Pmp]HRRRR[2Nal]FQ) [Monocyclic Inhibitor 2],,~30 nM,Ki [4]: 54 nM
B3,,,IC50 of Pin4 isomerase activity [5]: ~34000 nM
"Butyryl-RRRR[2Nal]FD[Nle][Abu]D-{AMC} [peptide 6 (Table 10, linear control)]",74.7 ΔFU/min,,decrease of activity relative to peptide 3 [6]: 53%
B4,,~100 nM,
B5,45.3 ΔFU/min,,decrease of activity relative to peptide 3 [6]: 72%
cyclo(IP[Phg][F2Pmp][Nle]RRRR[2Nal]FQ) [Monocyclic Inhibitor 3],,~200 nM,
